For orientation: Kd means the concentration at which binding is half-saturated.

In the test the target is His-tagged recombinant human LDLR (extracellular domain, hLDLR-ECD) (human) (UniProt P01130). The test can be described thus: SPR. (In general: Surface plasmon resonance follows binding to a sensor surface in real time, without labels.)
Chain of UniProt P01130 (P01130 22-788): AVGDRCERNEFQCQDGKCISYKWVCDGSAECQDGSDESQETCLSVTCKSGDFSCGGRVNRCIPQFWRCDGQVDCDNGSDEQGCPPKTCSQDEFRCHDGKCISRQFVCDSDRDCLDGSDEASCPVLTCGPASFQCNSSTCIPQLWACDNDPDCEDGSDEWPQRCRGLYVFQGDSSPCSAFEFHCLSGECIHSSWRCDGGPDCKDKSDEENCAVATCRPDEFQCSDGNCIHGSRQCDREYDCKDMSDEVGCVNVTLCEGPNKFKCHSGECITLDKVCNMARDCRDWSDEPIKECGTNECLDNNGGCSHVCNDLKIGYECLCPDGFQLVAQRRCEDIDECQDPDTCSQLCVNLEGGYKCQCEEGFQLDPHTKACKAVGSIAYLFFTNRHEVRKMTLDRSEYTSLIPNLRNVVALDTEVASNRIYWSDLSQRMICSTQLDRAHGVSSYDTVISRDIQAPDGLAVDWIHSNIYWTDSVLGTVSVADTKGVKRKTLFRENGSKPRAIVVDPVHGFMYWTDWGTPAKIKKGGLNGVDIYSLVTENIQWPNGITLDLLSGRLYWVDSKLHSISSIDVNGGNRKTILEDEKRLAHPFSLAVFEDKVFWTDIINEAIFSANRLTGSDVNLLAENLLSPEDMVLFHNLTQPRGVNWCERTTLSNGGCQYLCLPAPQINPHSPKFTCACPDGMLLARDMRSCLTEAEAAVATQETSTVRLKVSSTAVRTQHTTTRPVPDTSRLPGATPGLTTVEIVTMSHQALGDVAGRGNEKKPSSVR

As for “VH4127 peptide (cyclo[(D)-Cys-Met-Thz-Arg-Leu-Arg-Gly-Pen])”, the Kd is 40.1 nM.

These data come from doi:10.1101/2023.02.03.526778.
